This note sets out measurements from PMC4157861.

What is called stoichiometry N is a count of units in the complex or per binding partner.

The target of this assay is FHA domain of human kanadaptin (residues 149-276) (human) (UniProt Q9BWU0). The assay is described as follows: crystal structure; crystals from 1.6 M ammonium sulfate, 0.1 M citric acid pH 5.0, 277 K; space group P2(1)2(1)2(1); tag removed; one homodimer in the asymmetric unit.

Consider “FHA domain of human kanadaptin (residues 149-276) (from UniProt Q9BWU0 149-276) (domain or fragment)”, for which the stoichiometry N is 2.
